What was measured:
[1] = target: TFIIICΔtail complex (S. cerevisiae TFIIIC with τ95 truncated at residue 593) (S. cerevisiae) (UniProt P34111); assay: mass photometry; TFIIICΔtail at 50 and 100 nM, with and without 85- and 120-bp tRNA^His DNA; 20 mM HEPES pH 8, 100 mM KCl, 2 mM MgCl2, 5 mM DTT
[2] = target: TFIIICΔtail complex (S. cerevisiae TFIIIC with τ95 truncated at residue 593) (S. cerevisiae) (UniProt P34111); assay: cryo-EM structure; τB–DNA dimer classes of dataset 1 (2 μM TFIIICΔtail with equimolar 85-bp tRNA^His DNA, 200 mM KCl); map with preferred orientation, no model deposited

Substance: TFIIICΔtail complex (S. cerevisiae TFIIIC with τ95 truncated at residue 593), P34111 1-1160; P33339 1-1025; P32367 1-593; Q06339 1-672; Q12308 1-588; Q12415 1-435
- stoichiometry N [1]: 2
- stoichiometry N [2]: 2
